Consider one protein from publication PMC4566977, “Identification and characterization of Arabidopsis AtNUDX9 as a GDP-d-mannose pyrophosphohydrolase: its involvement in root growth inhibition in response to ammonium” (Journal of Experimental Botany, 2015).

Substrate in this data set: Nc1nc2c(ncn2[C@@H]2O[C@H](COP(=O)(O)OP(=O)(O)O[C@H]3O[C@H](CO)[C@@H](O)[C@H](O)[C@@H]3O)[C@@H](O)[C@H]2O)c(=O)[nH]1
The experiment in a line: purified protein. The following applies: 50 mM Tris-HCl pH 8.0, 5 mM MgCl2, 37 °C, 10 min, GDP-D-Man 50 μM to 2 mM, apparent Km. Type of data set: biochemical, Arabidopsis thaliana.

B1: AtNUDX9 (Arabidopsis thaliana) (protein)
chain: MAKLAEEMNPEGSRYQLLLSCPSGLSPSQVSVDFSKSHDRIPRQDPGLEDSISQVWEQRSQGNSSLFNGQKFRYGGYCLDDDDGSTNEVPHVCLRLGLTDYRTFVGTNLSSLWEKFLVTSEDDSVRCRHTSSPLGNGAVIETSDKKIIVLRRSNNVGEFPGHYVFPGGHPEPTAVGIDYHQLENNVQTGEVLNKKVTQEMFDSIICEVVEETGIPASSLSSPLFIGISRRELNVRPAMFFYLKCSHHSDDIQRLYSSAEDGFESTQLHTVSLDELKMMTSRMPGCHHGGFALYELMLQRLKNTKETSLIAT
notes: recombinant with hexahistidine tag (pCold II), expressed in E. coli BL21(DE3) pLysS, His Trap HP purified
In the case of B1, the Km was 376 ± 24 µM, the Vmax came out at 1.61 µmol/min/mg, the kcat amounted to 0.93 ± 1.5 s⁻¹ and the kcat/Km was 2400 M⁻¹ s⁻¹.

The Km is the concentration of substrate that gives half-maximal velocity. The Vmax is the rate approached at saturating substrate. For orientation: kcat means the number of substrate molecules converted per active site and unit of time at saturation. By kcat/Km is commonly meant the turnover number divided by the Michaelis constant.
